Target: BaxΔC21 (UniProt Q07812 1-171, C62S | C126S)
Experiment: SPR

Chain of BaxΔC21 (Q07812 1-171 C62S/C126S): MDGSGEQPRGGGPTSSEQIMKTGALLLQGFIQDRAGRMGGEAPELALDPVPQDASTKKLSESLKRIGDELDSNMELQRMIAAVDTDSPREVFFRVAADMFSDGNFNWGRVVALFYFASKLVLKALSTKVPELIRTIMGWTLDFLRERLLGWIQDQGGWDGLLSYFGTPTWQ

| IC50 | Binder |
| --- | --- |
| 306 nM | SESQEDIIRNIARHLAQVGDSMDRSIPPGLVNGL [BidBH3 peptide] |
| 41 nM | SESQEDIIRNIARHLRQVGDSMDRSIPPGLVNGL [BidBH3 A91R] |

Reference: PMC4650713 (2015)
